Columns and labels:
[1] = target: Argonaute 2 (human (endogenous in U937, U1, J1.1, HEK293T)) (UniProt Q9UKV8)
[2] = target: Argonaute 2 (human (endogenous in U937, U1, J1.1, HEK293T)) (UniProt Q9UKV8); remark: listed apart in the source

Chain of UniProt Q9UKV8 (Q9UKV8 whole entry): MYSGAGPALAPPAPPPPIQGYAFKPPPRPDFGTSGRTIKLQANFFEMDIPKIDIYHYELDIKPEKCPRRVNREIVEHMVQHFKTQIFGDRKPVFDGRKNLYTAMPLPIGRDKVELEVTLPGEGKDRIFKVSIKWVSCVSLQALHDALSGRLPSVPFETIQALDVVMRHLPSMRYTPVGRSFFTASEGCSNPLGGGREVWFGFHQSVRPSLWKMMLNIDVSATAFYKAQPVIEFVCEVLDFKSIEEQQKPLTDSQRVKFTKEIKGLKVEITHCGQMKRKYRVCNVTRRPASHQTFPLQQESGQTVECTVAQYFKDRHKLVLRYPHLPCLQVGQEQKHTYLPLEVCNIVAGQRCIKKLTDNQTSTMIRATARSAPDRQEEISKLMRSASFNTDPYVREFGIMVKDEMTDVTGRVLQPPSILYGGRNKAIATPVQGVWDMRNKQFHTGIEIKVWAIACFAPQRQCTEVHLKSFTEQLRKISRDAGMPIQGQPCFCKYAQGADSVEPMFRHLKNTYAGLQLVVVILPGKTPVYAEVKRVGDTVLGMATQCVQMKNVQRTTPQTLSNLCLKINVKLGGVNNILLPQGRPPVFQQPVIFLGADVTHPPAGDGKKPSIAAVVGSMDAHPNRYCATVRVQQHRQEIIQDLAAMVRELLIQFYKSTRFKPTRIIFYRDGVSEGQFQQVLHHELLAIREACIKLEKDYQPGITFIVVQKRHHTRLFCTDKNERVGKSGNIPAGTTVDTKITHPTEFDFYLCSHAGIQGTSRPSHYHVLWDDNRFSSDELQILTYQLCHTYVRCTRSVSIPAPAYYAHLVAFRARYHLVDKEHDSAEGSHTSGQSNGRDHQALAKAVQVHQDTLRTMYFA

Substance: wild type Nef (natural protein)
- RLuc-let7a reporter luciferase activity against the empty vector, U937 or HEK293T cells co-transfected with the Nef expression vector [1]: 70%

Substance: Nef-EYFP fusion protein (natural protein)
- slicer assay: cleavage of 32P-labelled let-7a RNA by Ago2 immunoprecipitates from U937/Nef-EYFP cells compared to U937/EYFP cells [2]: < 50%
